Reference: PMC10617564, “Efficient clathrin-mediated entry of enteric adenoviruses in human duodenal cells” (Journal of Virology, 2023)
pKd: −log10 of the molar value.

Molecular target: CAR (CXADR Fc chimera full-length extracellular D1D2 domain) (UniProt P78310)
Experiment: SPR; Biacore T-200; CAR-Fc amine-coupled to a CM5 chip (~1,500 response units); analytes in twofold dilutions 2000 to 7.81125 nM, injected 120 s at 30 uL/min; 25°C; 10 mM phosphate buffer pH 7.4, 140 mM NaCl, 0.27 mM KCl, 0.05% Tween20; regeneration with 10 mM glycine pH 1.5; three independent experiments

CAR (CXADR Fc chimera full-length extracellular D1D2 domain), sequence (P78310 20-237, change not shown): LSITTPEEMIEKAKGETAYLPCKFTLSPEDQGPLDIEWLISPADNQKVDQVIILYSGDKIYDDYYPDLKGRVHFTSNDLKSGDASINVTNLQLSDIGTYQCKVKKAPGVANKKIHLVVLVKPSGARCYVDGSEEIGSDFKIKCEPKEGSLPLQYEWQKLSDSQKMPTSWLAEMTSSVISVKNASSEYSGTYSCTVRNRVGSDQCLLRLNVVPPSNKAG
HAdV-F40 long fiber knob (domain or fragment), sequence (P18047 348-547 limits assumed): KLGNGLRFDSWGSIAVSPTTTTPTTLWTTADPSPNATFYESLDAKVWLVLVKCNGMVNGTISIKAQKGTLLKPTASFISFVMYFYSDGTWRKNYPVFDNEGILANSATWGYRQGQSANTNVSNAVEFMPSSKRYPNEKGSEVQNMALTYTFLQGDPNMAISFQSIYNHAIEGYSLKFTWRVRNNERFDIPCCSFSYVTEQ
HAdV-F41 long fiber knob (domain or fragment), sequence (P14267 363-562 limits assumed): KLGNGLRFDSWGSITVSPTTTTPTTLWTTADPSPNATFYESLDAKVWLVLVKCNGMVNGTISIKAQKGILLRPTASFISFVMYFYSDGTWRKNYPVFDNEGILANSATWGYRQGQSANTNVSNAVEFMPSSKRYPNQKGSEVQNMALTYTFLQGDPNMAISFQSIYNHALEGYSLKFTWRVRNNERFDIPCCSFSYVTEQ

Row | Substance | pKd
1 | HAdV-F40 long fiber knob (domain or fragment) | 7.59
2 | HAdV-F41 long fiber knob (domain or fragment) | 8.20
